Source: IntAct's records for PubMed 19666511

B1: GTP-binding protein YPT32/YPT11 (Saccharomyces cerevisiae), P51996 (parent)
chain: MSNEDYGYDYDYLFKIVLIGDSGVGKSNLLSRFTTDEFNIESKSTIGVEFATRTIEVENKKIKAQIWDTAGQERYRAITSAYYRGAVGALIVYDISKSSSYENCNHWLTELRENADDNVAVGLIGNKSDLAHLRAVPTDEAKNFAMENQMLFTETSALNSDNVDKAFRELIVAIFQMVSKHQVDLSGSGTNNMGSNGAPKGPTISLTPAPKEDKKKKSSNCC
partner: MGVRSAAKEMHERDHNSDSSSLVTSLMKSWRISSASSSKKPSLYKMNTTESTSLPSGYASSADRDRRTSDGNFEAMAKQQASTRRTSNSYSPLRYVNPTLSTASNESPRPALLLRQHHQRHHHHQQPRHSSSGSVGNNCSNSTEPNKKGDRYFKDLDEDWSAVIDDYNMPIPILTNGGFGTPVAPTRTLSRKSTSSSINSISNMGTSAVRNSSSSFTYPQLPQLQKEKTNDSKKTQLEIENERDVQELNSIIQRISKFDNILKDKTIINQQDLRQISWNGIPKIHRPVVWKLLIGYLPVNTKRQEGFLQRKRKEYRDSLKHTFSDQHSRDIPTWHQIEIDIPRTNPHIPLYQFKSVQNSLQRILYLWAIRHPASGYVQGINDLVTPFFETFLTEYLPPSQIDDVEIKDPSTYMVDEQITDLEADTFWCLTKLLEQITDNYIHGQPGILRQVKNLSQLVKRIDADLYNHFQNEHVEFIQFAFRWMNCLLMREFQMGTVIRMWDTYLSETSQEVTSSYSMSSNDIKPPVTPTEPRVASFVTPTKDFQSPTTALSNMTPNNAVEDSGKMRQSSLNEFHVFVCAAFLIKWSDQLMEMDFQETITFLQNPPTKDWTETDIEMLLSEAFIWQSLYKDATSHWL

Variants of: B1
Settings: with gyp1_yeast GYP1, Q08484
MSNEDYGYDYDYLFKIVLIGDSGVGKNNLLSRFTTDEFNIESKSTIGVEFATRTIEVENKKIKAQIWDTAGQERYRAITSAYYRGAVGALIVYDISKSSSYENCNHWLTELRENADDNVAVGLIGNKSDLAHLRAVPTDEAKNFAMENQMLFTETSALNSDNVDKAFRELIVAIFQMVSKHQVDLSGSGTNNMGSNGAPKGPTISLTPAPKEDKKKKSSNCC [S27N] was tested, and the “effect of a mutation on the interaction” value was “disrupting interaction”.
